According to patent WO2012003472A1 (dated 2012):

B1: antibody 2E6 (antibody, mouse IgG1, kappa, V domains shown)
VH: EVQLQQSGAELARPGASVKMSCKASGYTFTSYWMHWVKQRPGQGLEWIGAVYPRNNDTTYNQKFKGKAKLTAVTSASTAYMALSSLTNEDSAVYYCLYFNYNFDYWGQGTTLTVSS
VL: QIVLTQSPAIMSASPGEKVTMTCSASSSVSYMHWYQQKPGSSPRLLIYDTSNLASGVPVHFSGSGSGTSYSLTIIRMEAEDAATYYCQQWSSYPYTFGGGTKLEIKR
notes: Mouse monoclonal from hybridoma, IgG1 kappa; also called 2E06; mu2E6
B2: antibody 2A11 (antibody, mouse IgG2b, kappa, V domains shown)
VH: QVQLQQSGPELVKPGASVKISCKASGYAFSSSWMNWVKQRPGKGLEWIGRIYPGDGDTNYNGKFKGKATLTADKSSSTAYMQLSSLTSEDSAVYFCARSGSIYYGNHGDYFDYWGQGTTLTVSS
VL: B1 VL
notes: Mouse monoclonal from hybridoma, IgG2b kappa
B3: Hu2E6-62 (antibody, human IgG1, kappa, V domains shown)
VH: EVQLVQSGAEVAKPGASVKMSCKASGYTFTSYWMHWVKQAPGQGLEWIGAVYPRNNDATYNQKFKGKATLTADTSTSTAYMELRSLRSDDTAVYYCLYFNYNFDYWGQGTLLTVSS
VL: EIVLTQSPATMSASPGERVTMSCRASSSVSYMHWYQQKPGQSPRLLIYDTSNRASGVPAHFSGSGSGTDYTLTISSMEPEDFATYYCQQWSSYPYTFGQGTKLEIKR
B4: antibody 2D11 (antibody, mouse IgG1, kappa, V domains shown)
VH: EVQLQQSGAELARPGASVKMSCKASGYTFTRYWMHWVKQRPGQGLEWIGAIYPGNSDTTYNQKFKGKAKLTAVTSASTAYMELSSLTNEDSAVYYCIYPYDYLDYWGQGTTLTVSS
VL: QIVLTQSPAIMSASPGEKVTMTCSASSSLSYMHWYQQKPGTSPKRWVYDTSKLASGVPARFSGSGSGTSYSLTISSMEAEDAATYYCHQRSSYPYTFGGGTKLEIKR
notes: Mouse monoclonal from hybridoma, IgG1 kappa

How the values were obtained:
[1] = biological target: human Notch1 displayed on the surfaces of cells (human, UniProt P46531 19-2555); test: cell-based or functional assay
Sequence of human Notch1 displayed on the surfaces of cells (P46531 19-2555): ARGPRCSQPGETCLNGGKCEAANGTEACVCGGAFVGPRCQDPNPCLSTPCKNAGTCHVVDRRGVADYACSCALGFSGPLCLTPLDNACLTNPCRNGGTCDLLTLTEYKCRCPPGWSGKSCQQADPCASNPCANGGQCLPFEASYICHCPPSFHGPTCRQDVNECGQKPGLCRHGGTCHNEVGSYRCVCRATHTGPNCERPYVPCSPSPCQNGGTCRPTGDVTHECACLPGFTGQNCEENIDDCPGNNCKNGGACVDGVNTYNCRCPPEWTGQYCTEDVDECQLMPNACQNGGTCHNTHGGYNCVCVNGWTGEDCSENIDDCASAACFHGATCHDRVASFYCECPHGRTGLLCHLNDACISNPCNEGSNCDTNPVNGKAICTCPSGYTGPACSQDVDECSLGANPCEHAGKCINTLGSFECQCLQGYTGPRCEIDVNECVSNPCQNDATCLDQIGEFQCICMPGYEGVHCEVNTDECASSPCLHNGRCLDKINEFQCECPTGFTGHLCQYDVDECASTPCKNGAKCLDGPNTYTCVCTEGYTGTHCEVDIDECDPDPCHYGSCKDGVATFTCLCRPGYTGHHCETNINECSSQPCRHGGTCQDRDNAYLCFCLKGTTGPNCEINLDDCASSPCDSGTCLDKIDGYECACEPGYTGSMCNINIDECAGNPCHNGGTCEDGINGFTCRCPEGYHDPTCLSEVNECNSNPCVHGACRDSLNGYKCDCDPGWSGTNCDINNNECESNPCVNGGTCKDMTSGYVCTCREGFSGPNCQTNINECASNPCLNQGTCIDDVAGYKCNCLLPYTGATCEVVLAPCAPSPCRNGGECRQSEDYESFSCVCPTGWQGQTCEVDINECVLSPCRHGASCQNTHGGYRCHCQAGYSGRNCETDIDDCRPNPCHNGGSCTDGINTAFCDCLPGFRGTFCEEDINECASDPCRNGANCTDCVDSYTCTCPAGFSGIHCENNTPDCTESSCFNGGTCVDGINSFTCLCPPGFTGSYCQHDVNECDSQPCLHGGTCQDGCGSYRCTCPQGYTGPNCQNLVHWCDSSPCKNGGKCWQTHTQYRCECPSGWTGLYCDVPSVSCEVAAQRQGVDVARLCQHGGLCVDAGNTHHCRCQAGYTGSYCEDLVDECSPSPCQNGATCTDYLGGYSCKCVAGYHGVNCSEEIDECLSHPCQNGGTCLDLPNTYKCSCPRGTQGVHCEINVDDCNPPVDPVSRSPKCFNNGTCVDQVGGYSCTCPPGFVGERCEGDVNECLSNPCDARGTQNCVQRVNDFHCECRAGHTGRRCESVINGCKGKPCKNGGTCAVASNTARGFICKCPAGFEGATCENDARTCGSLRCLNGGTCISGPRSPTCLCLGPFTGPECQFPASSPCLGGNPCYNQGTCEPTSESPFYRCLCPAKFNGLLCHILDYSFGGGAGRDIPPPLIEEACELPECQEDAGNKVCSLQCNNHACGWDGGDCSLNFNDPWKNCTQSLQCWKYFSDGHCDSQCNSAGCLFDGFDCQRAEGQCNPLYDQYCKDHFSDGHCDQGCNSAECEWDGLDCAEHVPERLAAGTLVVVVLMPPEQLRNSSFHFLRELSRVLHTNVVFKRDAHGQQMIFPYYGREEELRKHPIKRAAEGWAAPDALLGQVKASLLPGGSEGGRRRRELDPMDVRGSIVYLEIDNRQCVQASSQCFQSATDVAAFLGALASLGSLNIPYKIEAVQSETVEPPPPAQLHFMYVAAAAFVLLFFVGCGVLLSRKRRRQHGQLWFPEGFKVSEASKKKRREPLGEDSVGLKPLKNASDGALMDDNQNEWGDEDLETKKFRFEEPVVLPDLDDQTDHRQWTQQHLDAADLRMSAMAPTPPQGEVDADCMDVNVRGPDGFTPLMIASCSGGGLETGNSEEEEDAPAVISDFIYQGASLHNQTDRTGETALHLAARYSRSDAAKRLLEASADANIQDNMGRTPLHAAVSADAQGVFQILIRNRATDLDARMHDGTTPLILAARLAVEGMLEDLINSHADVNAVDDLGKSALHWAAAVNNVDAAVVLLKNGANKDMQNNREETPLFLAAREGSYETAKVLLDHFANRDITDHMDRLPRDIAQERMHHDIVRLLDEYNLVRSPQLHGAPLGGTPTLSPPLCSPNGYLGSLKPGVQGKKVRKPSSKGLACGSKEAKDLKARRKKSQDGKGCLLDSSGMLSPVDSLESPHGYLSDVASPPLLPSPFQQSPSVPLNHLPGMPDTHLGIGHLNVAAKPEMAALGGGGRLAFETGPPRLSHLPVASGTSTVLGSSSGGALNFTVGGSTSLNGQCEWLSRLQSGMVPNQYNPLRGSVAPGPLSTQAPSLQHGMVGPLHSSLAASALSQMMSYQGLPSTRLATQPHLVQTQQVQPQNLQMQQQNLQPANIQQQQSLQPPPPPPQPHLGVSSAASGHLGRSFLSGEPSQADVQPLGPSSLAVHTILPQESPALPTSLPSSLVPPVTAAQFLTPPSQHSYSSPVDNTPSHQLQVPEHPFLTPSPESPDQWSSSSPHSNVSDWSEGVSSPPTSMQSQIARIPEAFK

[2] = biological target: T1, recombinant human Notch 1/Fc fusion protein (rhNotch1-Fc) (human, UniProt P46531 19-526); test: SPR (Biacore T100), antibody captured on anti-mouse IgG, rhNotch1-Fc as analyte, 25°C
T1 construct: Bought protein; also called rhNotchl-Fc; R&D Systems Cat. No. 3647-TK-050; not shown: Fc part

[3] = biological target: T2, rhNotch3-Fc (human, UniProt Q9UM47 40-467); test: BLI (Octet QK), Notch-Fc on anti-human-Fc sensors
T2 construct: Bought protein; also called human Notch3 protein; R&D Cat. No. 1559-NT-050; not shown: Fc part
T2 sequence (looked up): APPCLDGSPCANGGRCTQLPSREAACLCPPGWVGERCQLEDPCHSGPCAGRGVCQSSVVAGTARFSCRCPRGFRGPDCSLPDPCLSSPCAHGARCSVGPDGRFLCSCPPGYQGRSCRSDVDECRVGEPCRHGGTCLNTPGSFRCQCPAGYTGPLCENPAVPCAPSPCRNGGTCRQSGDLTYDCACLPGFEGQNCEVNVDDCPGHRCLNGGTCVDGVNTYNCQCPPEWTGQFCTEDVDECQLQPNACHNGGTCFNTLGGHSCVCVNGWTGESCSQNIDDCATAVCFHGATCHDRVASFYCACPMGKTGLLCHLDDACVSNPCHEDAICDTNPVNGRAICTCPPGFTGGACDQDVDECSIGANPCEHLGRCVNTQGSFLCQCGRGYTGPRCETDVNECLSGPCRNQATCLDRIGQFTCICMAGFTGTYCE

[4] = biological target: T3, rhNotch2-Fc (human, UniProt Q04721 26-530); test: BLI (Octet QK), Notch-Fc on anti-human-Fc sensors
T3 construct: Bought protein; also called human Notch2 protein; R&D Cat. No. 3735-NT-050; not shown: Fc part
T3 sequence (looked up): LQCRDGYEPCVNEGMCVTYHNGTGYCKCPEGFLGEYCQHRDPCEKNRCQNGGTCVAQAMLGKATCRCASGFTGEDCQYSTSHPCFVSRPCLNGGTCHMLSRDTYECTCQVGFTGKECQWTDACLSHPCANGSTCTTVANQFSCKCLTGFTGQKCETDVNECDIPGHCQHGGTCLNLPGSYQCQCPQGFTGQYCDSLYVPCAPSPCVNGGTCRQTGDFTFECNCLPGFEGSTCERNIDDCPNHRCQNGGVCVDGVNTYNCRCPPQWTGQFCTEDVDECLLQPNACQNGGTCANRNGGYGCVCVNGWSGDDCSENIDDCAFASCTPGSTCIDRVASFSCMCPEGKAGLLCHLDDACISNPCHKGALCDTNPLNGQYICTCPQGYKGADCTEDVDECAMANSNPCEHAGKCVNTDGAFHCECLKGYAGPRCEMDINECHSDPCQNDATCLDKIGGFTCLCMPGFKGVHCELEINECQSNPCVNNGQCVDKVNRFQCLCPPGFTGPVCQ

[5] = biological target: T4, human Notch4 displayed on the surfaces of cells (human, UniProt Q99466 24-2003); test: electrochemiluminescence (Meso Scale Discovery) on CHO FlpIn cells
T4 construct: whole, on cells; also called human Notch4 on CHO FlpIn cells
T4 sequence (Q99466 24-2003): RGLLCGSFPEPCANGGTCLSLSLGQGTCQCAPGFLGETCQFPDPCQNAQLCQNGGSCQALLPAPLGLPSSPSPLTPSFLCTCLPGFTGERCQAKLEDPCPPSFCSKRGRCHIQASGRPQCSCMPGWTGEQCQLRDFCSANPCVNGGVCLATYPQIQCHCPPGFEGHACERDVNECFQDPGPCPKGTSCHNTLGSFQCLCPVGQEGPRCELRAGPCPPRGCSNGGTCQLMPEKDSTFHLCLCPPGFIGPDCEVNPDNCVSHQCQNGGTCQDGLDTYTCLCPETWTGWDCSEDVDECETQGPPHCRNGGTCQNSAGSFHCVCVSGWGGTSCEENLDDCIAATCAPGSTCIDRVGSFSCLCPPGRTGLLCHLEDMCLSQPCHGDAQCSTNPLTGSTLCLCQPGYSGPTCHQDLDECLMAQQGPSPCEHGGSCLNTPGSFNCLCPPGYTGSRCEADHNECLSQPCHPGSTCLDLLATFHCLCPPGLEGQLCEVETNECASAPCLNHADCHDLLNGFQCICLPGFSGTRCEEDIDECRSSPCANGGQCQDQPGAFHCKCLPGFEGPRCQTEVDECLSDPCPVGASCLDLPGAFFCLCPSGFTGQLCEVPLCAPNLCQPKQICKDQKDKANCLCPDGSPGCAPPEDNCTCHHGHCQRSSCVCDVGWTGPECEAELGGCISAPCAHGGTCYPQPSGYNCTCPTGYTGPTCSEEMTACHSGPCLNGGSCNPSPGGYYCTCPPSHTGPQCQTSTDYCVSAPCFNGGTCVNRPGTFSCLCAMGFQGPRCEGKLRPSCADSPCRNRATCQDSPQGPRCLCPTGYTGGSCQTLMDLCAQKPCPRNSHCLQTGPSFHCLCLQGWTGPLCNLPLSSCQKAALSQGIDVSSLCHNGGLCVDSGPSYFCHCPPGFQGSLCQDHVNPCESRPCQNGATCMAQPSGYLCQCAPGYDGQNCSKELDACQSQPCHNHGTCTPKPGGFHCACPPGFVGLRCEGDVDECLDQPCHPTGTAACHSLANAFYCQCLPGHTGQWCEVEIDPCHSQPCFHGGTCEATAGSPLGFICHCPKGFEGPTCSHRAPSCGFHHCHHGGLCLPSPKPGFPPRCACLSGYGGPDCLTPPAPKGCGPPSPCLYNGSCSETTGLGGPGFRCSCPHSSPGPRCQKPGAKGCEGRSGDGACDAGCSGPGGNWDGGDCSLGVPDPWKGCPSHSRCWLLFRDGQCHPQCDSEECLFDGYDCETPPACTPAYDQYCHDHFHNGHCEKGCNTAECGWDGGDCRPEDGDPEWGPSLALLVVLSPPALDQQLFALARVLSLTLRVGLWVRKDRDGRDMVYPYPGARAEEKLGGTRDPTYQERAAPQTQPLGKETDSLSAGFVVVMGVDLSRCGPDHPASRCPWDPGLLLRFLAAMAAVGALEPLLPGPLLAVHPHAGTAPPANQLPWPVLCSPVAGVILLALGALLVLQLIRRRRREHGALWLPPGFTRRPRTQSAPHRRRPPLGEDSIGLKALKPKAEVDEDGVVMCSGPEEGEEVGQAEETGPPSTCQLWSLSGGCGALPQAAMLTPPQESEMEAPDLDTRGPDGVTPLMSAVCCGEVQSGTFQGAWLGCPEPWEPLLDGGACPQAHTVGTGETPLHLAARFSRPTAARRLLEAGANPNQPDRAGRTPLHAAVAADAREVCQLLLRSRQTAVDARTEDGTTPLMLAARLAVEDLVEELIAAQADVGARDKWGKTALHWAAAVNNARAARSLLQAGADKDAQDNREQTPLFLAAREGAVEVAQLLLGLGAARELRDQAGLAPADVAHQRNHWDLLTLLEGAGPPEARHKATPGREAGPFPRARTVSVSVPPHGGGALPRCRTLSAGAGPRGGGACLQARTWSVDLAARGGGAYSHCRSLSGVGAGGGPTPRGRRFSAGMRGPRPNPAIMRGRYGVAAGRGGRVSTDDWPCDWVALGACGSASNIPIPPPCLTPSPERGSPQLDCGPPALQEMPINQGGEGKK

[6] = biological target: T5, human Notch2 displayed on the surfaces of cells (human, UniProt Q04721 26-2471); test: as above
T5 construct: whole, on cells; also called human Notch2 on CHO FlpIn cells; Notch2-dependent reporter cells

[7] = biological target: T6, human Notch3 displayed on the surfaces of cells (human, UniProt Q9UM47 40-2321); test: as above
T6 construct: whole, on cells; also called human Notch3 on CHO FlpIn cells; Notch3-dependent reporter cells

Row | Binder | EC50, Inhibition of Notch 1 Signaling, DLL1 (row printed 'DLI A') [1] [nM] | EC50, Inhibition of Notch 1 Signaling, DLL4 (row printed 'DLI A') [1] [nM] | EC50, Inhibition of Notch 1 Signaling, Jag 1 [1] [nM] | EC50, Inhibition of Notch 1 Signaling, Jag 2 [1] [nM] | Kd [2] [nM] | binding result [3] | binding result [4] | binding result [5] | binding result [6] | binding result [7]
1 | B1 | 0.2 | 0.1 | 0.4 | 0.1 | ≤ 10 | – | – | – | – | –
2 | B2 | – | – | – | – | ≤ 10 | no binding (tested: 50 μg/ml antibody) | no binding (tested: 50 μg/ml antibody) | no binding (tested: 5 μg/ml antibody) | no binding (tested: 5 μg/ml antibody) | no binding (tested: 5 μg/ml antibody)
3 | B3 | 0.1 | 0.02 | 0.9 | 0.5 | – | – | – | – | – | –
4 | B4 | – | – | – | – | ≤ 10 | – | – | – | – | –
